Data: paper doi:10.1101/2024.03.05.583490

Target: IR-Rluc (insulin receptor fused to Rluc) (UniProt P06213)
Experiment: FRET or BRET

fold change in BRET50 against the wild type: 2 fold
Substance: IGF1R-YPET F450A (from UniProt P08069 31-1367) (receptor)
